Source: patent publication US8524668 (CLEVELAND CLINIC FOUNDATION, dated 2013)
Ends that are not written are not given here. Pam2 = S-(2,3-dihydroxypropyl)-cysteine acylated by two palmitic acids (lipo-cysteine)

B1: CBLB601 (R-PAM2C-SKKKK) (peptide)
peptide: CSKKKK
modifications: N-terminal Cys is the R-Pam2 lipoamino acid (S-(2,3-dihydroxypropyl)-cysteine acylated by two palmitic acids, R stereoisomer)

Target: TLR2/TLR6 heterodimer
Assay: cell-based or functional assay

Row | Binder | NF-κB activation
1 | VQGEESNDK (not fully specified (N-terminus)) [CBLB612] | 200
2 | QGEESNDK (not fully specified (N-terminus)) [CBLB614] | 200
3 | Pam2-GSHHM [CBLB604] | 0
4 | GEESN (not fully specified (N-terminus)) [CBLB615] | 200
5 | Pam2-GQHHM [CBLB603] | 0
6 | B1 | 100
7 | Pam2-SQMHH [CBLB605] | 2
8 | {R‑Pam2}-GDPKHPKSF [CBLB606] | 100
9 | Pam2-FEPPPATTTKSK [CBLB608] | 2
10 | Pam2-GQHHH [CBLB602] | 0
11 | GETDKEGKIIRIFDNSF (not fully specified (N-terminus)) [CBLB611] | 0
12 | Pam2-GDPKHPKSFTGWVA [CBLB607] | 2
